{"source": "patent US20260034194A1", "about": "“PHARMACEUTICAL COMPOSITIONS AND METHODS OF TREATING PSP” (priority 2022, published 2026)", "molecules": {"B1": {"name": "RcSxph: Rana (Lithobates) catesbeianus (American bullfrog) saxiphilin, SEQ ID NO: 1 (protein)", "chain": "MAPTFQTALFFTIISLSFAAPNAKQVRWCAISDLEQKKCNDLVGSCNVPDITLVCVLRSSTEDCMTAIKDGQADAMFLDSGEVYEASKDPYNLKPIIAEPYSSNRDLQKCLKERQQALAKKMIGHYIPQCDEKGNYQPQQCHGSTGHCWCVNAMGEKISGTNTPPGQTRATCERHELPKCLKERQVALGGDEKVLGRFVPQCDEKGNYEPQQFHGSTGYSWCVNAIGEEIAGTKTPPGKIPATCQKHDLVTTCHYAVAMVKKSSAFQFNQLKGKRSCHSGVSKTDGWKALVTVLVEKKLLSWDGPAKESIQRAMSKFFSVSCIPGATQTNLCKQCKGEEGKNCKNSHDEPYYGNYGAFRCLKEDMGDVAFLRSTALSDEHSEVYELLCPDNTRKPLNKYKECNLGTVPAGTVVTRKISDKTEDINNFLMEAQKRQCKLFSSAHGKDLMFDDSTLQLALLSSEVDAFLYLGVKLFHAMKALTGDAHLPSKNKVRWCTINKLEKMKCDDWSAVSGGAIACTEASCPKGCVKQILKGEADAVKLEVQYMYEALMCGLLPAVEEYHNKDDFGPCKTPGSPYTDFGTLRAVALVKKSNKDINWNNIKGKKSCHTGVGDIAGWVIPVSLIRRQNDNSDIDSFFGESCAPGSDTKSNLCKLCIGDPKNSAANTKCSLSDKEAYYGNQGAFRCLVEKGDVAFVPHTVVFENTDGKNPAVWAKNLKSEDFELLCLDGSRAPVSNYKSCKLSGIPPPAIVTREESISDVVRIVANQQSLYGRKGFEKDMFQLFSSNKGNNLLFNDNTQCLITFDRQPKDIMEDYFGKPYYTTVYGASRSAMSSELISACTIKHC"}, "B2": {"name": "P727A: RcSxph STX binding pocket mutant P727A (protein)", "chain": "B1 chain with P746A"}, "B3": {"name": "I782A: RcSxph STX binding pocket mutant I782A (protein)", "chain": "B1 chain with I801A"}, "B4": {"name": "E540A: RcSxph STX binding pocket mutant E540A (protein)", "chain": "B1 chain with E559A"}}, "key": {"[1]": {"system": "STX poisoning in female CD-1 mice", "type": "in vivo", "conditions": "RcSxph:STX 2:1 molar ratio, 30 nmoles/Kg STX, 60 nmoles/Kg RcSxph, IP, observed up to one hour"}, "[2]": {"conditions": "read-out: RcSxph affinity for STX; prior radioligand assay; cited from earlier work"}, "[3]": {"type": "binding", "conditions": "ITC, STX, 25° C.", "method": ". […] In almost all mutants, binding affinity loss correlated with a reduction in enthalpy, consistent with a loss of interactions (Table S2). […]. […] Together, these three assays (FIGS. 1E and G) provide a robust and versatile suite of options for characterizing STX:Sxph interactions.\nITC measurements were performed at 25° C. using a MicroCal PEAQ-ITC calorimeter (Malvern Panalytical). […]. This STX stock was diluted with the SEC buffer to prepare 100 μM or 300 μM STX solutions having a final buffer composition of 135 mM NaCl, 9 mM HEPES, pH 7.4. […]. The calorimetric experiment settings were: reference power, 5 μcal/s; spacing between injections, 150 s; stir speed 750 rpm; and feedback mode, high. Data were analyzed using MicroCal PEAQ-ITC Analysis Software (Malvern Panalytical) using a single binding site model. The heat of dilution from titrations of 100 μM STX in 135 mM NaCl, 9 mM HEPES, pH 7.4 into 135 mM NaCl, 9 mM HEPES, pH 7.4 was subtracted from each experiment to correct the baseline."}, "[4]": {"assay": "Thermofluor (TF) assay of STX binding", "conditions": "1.1 μM Sxph, 0-20 μM STX; ΔTm at 20 μM toxin"}, "[5]": {"system": "TTX poisoning in female CD-1 mice", "conditions": "mouse, in vivo, ip"}, "female CD-1 mice": {"system": "female CD-1 mice", "conditions": "60 nmoles/Kg RcSxph, IP, observed up to one hour"}, "[6]": {"type": "binding"}, "[7]": {"type": "binding", "conditions": "for Kd: FP; for ΔΔG: ΔΔG = RT ln(Kd mutant or XSxph/Kd RcSxph), T = 298K, FP with F-STX"}, "[8]": {"system": "Phyllobates terribilis NaV1.4 (PtNaV1.4)", "assay": "Two-electrode voltage clamp: Sxph rescue of PtNaV1.4 from STX block in Xenopus oocytes", "type": "cell-based", "conditions": "[Sxph]:[STX] ratio, 100 nM STX, PtNaV1.4 in Xenopus oocytes"}, "[9]": {"conditions": "1 nM F-STX, 25° C., errors S.D."}}, "note": "Changes are numbered by the printed parent chain. Names and notes keep the numbering of the source. “Also recorded” adds a separate entry of the source. Where two headings read alike, the source gives them in different places.", "data": [{"molecule": "B1", "values": [{"measurement": "protection of mice from STX poisoning", "setting": "[1]", "result": "protects mice from STX poisoning; also recorded: sufficient to protect mice completely from STX intoxication"}, {"measurement": "Kd", "setting": "[2]", "result": "~1", "unit": "nM"}, {"measurement": "Kd", "setting": "[3]", "result": "1.2 ± 0.8", "unit": "nM"}, {"measurement": "ΔH", "setting": "[3]", "result": "-16.1 ± 0.2", "unit": "kcal/mol"}, {"measurement": "ΔS (cal mol^−1 K^−1)", "setting": "[3]", "result": "−12.7 ± 0.9", "unit": "cal mol^−1 K^−1"}, {"measurement": "ΔH", "setting": "[3]; listed as RcSxph WT", "result": "-16.1 ± 0.2", "unit": "kcal/mol"}, {"measurement": "ΔTm (STX-induced change of melting temperature)", "setting": "[4]", "result": 3.6, "unit": "°C"}, {"measurement": "mitigation of TTX poisoning in mice", "setting": "[5]", "result": "unable to mitigate TTX poisoning"}, {"measurement": "adverse effects of RcSxph alone", "setting": "female CD-1 mice", "result": "no detectable adverse effects"}, {"measurement": "ΔTm (TTX-induced change of melting temperature)", "setting": "[6]", "result": 0.3, "unit": "°C"}]}, {"molecule": "B2", "values": [{"measurement": "Kd", "setting": "[7]; [9]", "result": "56.9 ± 12.1", "unit": "nM"}, {"measurement": "ΔΔG", "setting": "[7]", "result": 1.21, "unit": "kcal/mol"}, {"measurement": "Effective Rescue Ratio50 (ERR50)", "setting": "[8]", "result": "> 4"}, {"measurement": "Kd", "setting": "[3]", "result": "31.3 ± 11.6", "unit": "nM"}, {"measurement": "ΔG", "setting": "[3]", "result": "-10.3 ± 0.2", "unit": "kcal/mol"}, {"measurement": "ΔH", "setting": "[3]", "result": "-11.5 ± 0.0", "unit": "kcal/mol"}, {"measurement": "ΔS (cal mol^−1 K^−1)", "setting": "[3]", "result": "−4.2 ± 0.9", "unit": "cal mol^−1 K^−1"}]}, {"molecule": "B3", "values": [{"measurement": "Kd", "setting": "[7]; [9]", "result": "3 ± 0.8", "unit": "nM"}, {"measurement": "ΔΔG", "setting": "[7]", "result": -0.53, "unit": "kcal/mol"}, {"measurement": "Effective Rescue Ratio50 (ERR50)", "setting": "[8]", "result": "0.87±0.02"}, {"measurement": "ΔTm (STX-induced change of melting temperature)", "setting": "[4]", "result": "DTm increases relative to wild-type"}]}, {"molecule": "B4", "values": [{"measurement": "Kd", "setting": "[7]; [9]", "result": "15300 ± 4130", "unit": "nM"}, {"measurement": "Kd", "setting": "[7]; F-STX", "result": 15300, "unit": "nM"}, {"measurement": "ΔΔG", "setting": "[7]", "result": 4.52, "unit": "kcal/mol"}, {"measurement": "Effective Rescue Ratio50 (ERR50)", "setting": "[8]", "result": "eliminated"}, {"measurement": "ΔTm (STX-induced change of melting temperature)", "setting": "[4]", "result": "complete loss of the thermal shift"}]}]}
